{"source": "paper PMC11096365", "about": "“Cryo-EM structures of the human Elongator complex at work” (Nature Communications, 2024)", "molecules": {"B1": {"name": "human ELP2 (natural protein, UniProt Q6IA86 1-826, looked up)", "chain": "MVAPVLETSHVFCCPNRVRGVLNWSSGPRGLLAFGTSCSVVLYDPLKRVVVTNLNGHTARVNCIQWICKQDGSPSTELVSGGSDNQVIHWEIEDNQLLKAVHLQGHEGPVYAVHAVYQRRTSDPALCTLIVSAAADSAVRLWSKKGPEVMCLQTLNFGNGFALALCLSFLPNTDVPILACGNDDCRIHIFAQQNDQFQKVLSLCGHEDWIRGVEWAAFGRDLFLASCSQDCLIRIWKLYIKSTSLETQDDDNIRLKENTFTIENESVKIAFAVTLETVLAGHENWVNAVHWQPVFYKDGVLQQPVRLLSASMDKTMILWAPDEESGVWLEQVRVGEVGGNTLGFYDCQFNEDGSMIIAHAFHGALHLWKQNTVNPREWTPEIVISGHFDGVQDLVWDPEGEFIITVGTDQTTRLFAPWKRKDQSQVTWHEIARPQIHGYDLKCLAMINRFQFVSGADEKVLRVFSAPRNFVENFCAITGQSLNHVLCNQDSDLPEGATVPALGLSNKAVFQGDIASQPSDEEELLTSTGFEYQQVAFQPSILTEPPTEDHLLQNTLWPEVQKLYGHGYEIFCVTCNSSKTLLASACKAAKKEHAAIILWNTTSWKQVQNLVFHSLTVTQMAFSPNEKFLLAVSRDRTWSLWKKQDTISPEFEPVFSLFAFTNKITSVHSRIIWSCDWSPDSKYFFTGSRDKKVVVWGECDSTDDCIEHNIGPCSSVLDVGGAVTAVSVCPVLHPSQRYVVAVGLECGKICLYTWKKTDQVPEINDWTHCVETSQSQSHTLAIRKLCWKNCSGKTEQKEAEGAEWLHFASCGEDHTVKIHRVNKCAL", "notes": "ELP2, human, codon-optimized open reading frame; predicted MW printed as 93 kDa; Same material as the ELP2 chain of m4; The ORF was first cloned into pFastBac1 HT A; source: SuperSf9-3 insect cells, co-expressed with ELP1 and ELP3 (pBig1a), purified as ELP123 (StrepTrap, heparin, Superose 6)"}, "B2": {"name": "tRNAGln U33C34UG (structured_RNA)", "RNA": "GGCCCCAUGGUGUAAUGGUUAGCACUCUGGACUCUGAAUCCAGCGAUCCGAGUUCAAAUCUCGGUGGGACCUCCA"}, "B3": {"name": "tRNAGlnCUG (structured_RNA)", "RNA": "GGUUCCAUGGUGUAAUGGUUAGCACUCUGGACUCUGAAUCCAGCGAUCCGAGUUCAAAUCUCGGUGGAACCUCCA"}, "B4": {"name": "tRNAGln C33C34UG (structured_RNA)", "RNA": "GGCCCCAUGGUGUAAUGGUUAGCACUCUGGACCCUGAAUCCAGCGAUCCGAGUUCAAAUCUCGGUGGGACCUCCA"}, "B5": {"name": "tRNAGln C33U34UG (structured_RNA)", "RNA": "GGCCCCAUGGUGUAAUGGUUAGCACUCUGGACCUUGAAUCCAGCGAUCCGAGUUCAAAUCUCGGUGGGACCUCCA"}, "B6": {"name": "tRNASerUGA (structured_RNA)", "RNA": "GCAGCGAUGGCCGAGUGGUUAAGGCGUUGGACUUGAAAUCCAAUGGGGUCUCCCCGCGCAGGUUCGAACCCUGCUCGCUGCGCCA"}, "B7": {"name": "human ELP1 (natural protein, UniProt O95163 1-1332, looked up)", "chain": "MRNLKLFRTLEFRDIQGPGNPQCFSLRTEQGTVLIGSEHGLIEVDPVSREVKNEVSLVAEGFLPEDGSGRIVGVQDLLDQESVCVATASGDVILCSLSTQQLECVGSVASGISVMSWSPDQELVLLATGQQTLIMMTKDFEPILEQQIHQDDFGESKFITVGWGRKETQFHGSEGRQAAFQMQMHESALPWDDHRPQVTWRGDGQFFAVSVVCPETGARKVRVWNREFALQSTSEPVAGLGPALAWKPSGSLIASTQDKPNQQDIVFFEKNGLLHGHFTLPFLKDEVKVNDLLWNADSSVLAVWLEDLQREESSIPKTCVQLWTVGNYHWYLKQSLSFSTCGKSKIVSLMWDPVTPYRLHVLCQGWHYLAYDWHWTTDRSVGDNSSDLSNVAVIDGNRVLVTVFRQTVVPPPMCTYQLLFPHPVNQVTFLAHPQKSNDLAVLDASNQISVYKCGDCPSADPTVKLGAVGGSGFKVCLRTPHLEKRYKIQFENNEDQDVNPLKLGLLTWIEEDVFLAVSHSEFSPRSVIHHLTAASSEMDEEHGQLNVSSSAAVDGVIISLCCNSKTKSVVLQLADGQIFKYLWESPSLAIKPWKNSGGFPVRFPYPCTQTELAMIGEEECVLGLTDRCRFFINDIEVASNITSFAVYDEFLLLTTHSHTCQCFCLRDASFKTLQAGLSSNHVSHGEVLRKVERGSRIVTVVPQDTKLVLQMPRGNLEVVHHRALVLAQIRKWLDKLMFKEAFECMRKLRINLNLIYDHNPKVFLGNVETFIKQIDSVNHINLFFTELKEEDVTKTMYPAPVTSSVYLSRDPDGNKIDLVCDAMRAVMESINPHKYCLSILTSHVKKTTPELEIVLQKVHELQGNAPSDPDAVSAEEALKYLLHLVDVNELYDHSLGTYDFDLVLMVAEKSQKDPKEYLPFLNTLKKMETNYQRFTIDKYLKRYEKAIGHLSKCGPEYFPECLNLIKDKNLYNEALKLYSPSSQQYQDISIAYGEHLMQEHMYEPAGLMFARCGAHEKALSAFLTCGNWKQALCVAAQLNFTKDQLVGLGRTLAGKLVEQRKHIDAAMVLEECAQDYEEAVLLLLEGAAWEEALRLVYKYNRLDIIETNVKPSILEAQKNYMAFLDSQTATFSRHKKRLLVVRELKEQAQQAGLDDEVPHGQESDLFSETSSVVSGSEMSGKYSHSNSRISARSSKNRRKAERKKHSLKEGSPLEDLALLEALSEVVQNTENLKDEVYHILKVLFLFEFDEQGRELQKAFEDTLQLMERSLPEIWTLTYQQNSATPVLGPNSTANSIMASYQQQKTSVPVLDAELFIPPKINRRTQWKLSLLD", "notes": "ELP1, human, codon-optimized open reading frame, UniProt O95163; predicted MW printed as 148 kDa; Same material as the ELP1 chain of m4; The ORF was first cloned into pFastBac1 HT A; source: SuperSf9-3 insect cells, co-expressed with ELP2 and ELP3 (pBig1a), purified as ELP123 (StrepTrap, heparin, Superose 6)"}}, "key": {"H3": {"target": "H3", "test": "MST", "conditions": "complex; chains chain;chain;chain"}, "TK40": {"target": "TK40", "test": "MST", "conditions": "complex; chains chain;chain;chain"}, "[1]": {"target": "T1, human ELP3 with C-terminal Twin-Strep-Tag (human, UniProt Q9H9T3 1-547)", "T1 construct": "ELP3, human, codon-optimized open reading frame, UniProt Q9H9T3; with the tag 65 kDa as printed; Same material as the ELP3 chain of m4; carries an iron-sulfur cluster in all structures; also called ELP3 with Twin-Strep-Tag (TST); source: SuperSf9-3 insect cells, co-expressed with ELP1 and ELP2 (pBig1a), purified as ELP123 (StrepTrap, heparin, Superose 6); not shown: Twin-Strep-Tag, C-terminal, …", "T1 sequence (looked up)": "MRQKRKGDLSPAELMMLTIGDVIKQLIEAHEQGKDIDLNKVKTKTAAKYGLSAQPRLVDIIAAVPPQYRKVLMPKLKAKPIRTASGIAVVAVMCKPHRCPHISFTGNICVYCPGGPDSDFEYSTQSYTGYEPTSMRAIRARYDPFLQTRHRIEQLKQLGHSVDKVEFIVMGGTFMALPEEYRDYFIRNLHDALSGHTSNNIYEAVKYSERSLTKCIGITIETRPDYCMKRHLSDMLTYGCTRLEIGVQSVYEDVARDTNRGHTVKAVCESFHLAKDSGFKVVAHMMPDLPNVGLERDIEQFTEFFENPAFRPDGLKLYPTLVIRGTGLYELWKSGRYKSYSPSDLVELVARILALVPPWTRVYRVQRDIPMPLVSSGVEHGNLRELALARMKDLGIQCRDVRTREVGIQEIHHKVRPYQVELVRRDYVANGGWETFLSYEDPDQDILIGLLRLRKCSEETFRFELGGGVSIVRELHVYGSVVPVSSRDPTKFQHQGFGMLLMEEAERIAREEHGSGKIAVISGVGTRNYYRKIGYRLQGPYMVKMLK", "test": "co-purification with SDS-PAGE; ELP1, ELP2 and ELP3-Twin-Strep co-expressed in insect cells; StrepTrap, heparin and Superose 6 columns; SDS-PAGE of the purified subcomplex", "conditions": "partners not purified"}, "ELP1;ELP2;ELP3 wild type": {"target": "ELP1;ELP2;ELP3 wild type (Homo sapiens;Homo sapiens;Homo sapiens, UniProt O95163;Q6IA86;Q9H9T3 1-1332;1-826;1-547, ||)", "test": "MST; MST: 20 mM HEPES pH 7.5, 100 mM NaCl, 5 mM DTT, 0.05% Tween 20; incubated at 4 C 30 min, measured at 25 C; Cy5-tRNA 14 or 30 nM. Cryo-EM: 20 mM HEPES pH 7.5, 100 mM NaCl, 2 mM MgCl2, 2 mM DTT", "conditions": "protein: recombinant;recombinant;recombinant, tags: ;;C-terminal Twin-Strep-Tag, chain copies: 2;2;2, label: internal Cy5 (5% Cy5-CTP), tRNA fold"}, "[2]": {"target": "the molecule itself", "test": "cryo-EM structure; co-expressed, co-purified ELP123 (0.6 g/l) without or with tRNA (3.3 µM), acetyl-CoA/DCA/ECA (0.5 mM) and SAM (1 mM); 20 mM HEPES pH 7.5, 100 mM NaCl, 2 mM MgCl2, 2 mM DTT; single-particle analysis"}}, "data": [{"molecule": "human ELP123 subcomplex (ELP1, ELP2, ELP3), O95163 1-1332; Q6IA86 1-826; Q9H9T3 1-547", "values": [{"measurement": "Kd", "setting": "H3", "value": "> 10000", "unit": "nM"}, {"measurement": "Kd", "setting": "TK40", "value": "> 10000", "unit": "nM"}]}, {"molecule": "B1", "values": [{"measurement": "stoichiometry N", "setting": "[1]", "value": 1}]}, {"molecule": "B2", "values": [{"measurement": "binding result", "setting": "ELP1;ELP2;ELP3 wild type", "value": "binds"}]}, {"molecule": "B3", "values": [{"measurement": "Kd", "setting": "ELP1;ELP2;ELP3 wild type", "value": "118 ± 13.8", "unit": "nM"}]}, {"molecule": "B4", "values": [{"measurement": "binding result", "setting": "ELP1;ELP2;ELP3 wild type", "value": "binds"}]}, {"molecule": "B5", "values": [{"measurement": "binding result", "setting": "ELP1;ELP2;ELP3 wild type", "value": "binds"}]}, {"molecule": "B6", "values": [{"measurement": "Kd", "setting": "ELP1;ELP2;ELP3 wild type; long variable loop", "value": "138 ± 10.5", "unit": "nM"}]}, {"molecule": "B7", "values": [{"measurement": "binding result", "setting": "[2]", "value": "binds"}, {"measurement": "stoichiometry N", "setting": "[1]", "value": 1}]}]}
